Biological target: FtsQ (Escherichia coli), P06136
Test: not stated; unpublished results (Luirink and den Blaauwen); method not given
Conditions: remark: other sources report otherwise

Chain of FtsQ (Escherichia coli), P06136 (P06136 whole entry): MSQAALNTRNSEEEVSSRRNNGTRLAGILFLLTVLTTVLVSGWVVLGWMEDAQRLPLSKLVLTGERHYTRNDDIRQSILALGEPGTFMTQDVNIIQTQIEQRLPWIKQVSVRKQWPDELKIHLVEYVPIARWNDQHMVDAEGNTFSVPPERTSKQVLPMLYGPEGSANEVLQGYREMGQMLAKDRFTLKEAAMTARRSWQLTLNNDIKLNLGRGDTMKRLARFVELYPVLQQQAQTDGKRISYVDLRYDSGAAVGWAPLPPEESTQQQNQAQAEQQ

B1: FtsL, P0AEN4 1-121 (natural protein)
chain: MISRVTEALSKVKGSMGSHERHALPGVIGDDLLRFGKLPLCLFICIILTAVTVVTTAHHTRLLTAQREQLVLERDALDIEWRNLILEENALGDHSRVERIATEKLQMQHVDPSQENIVVQK
stoichiometry N: 1

Reference: publication PMC4462998
